The values below come from the supplement of paper PMC9112550, “Optimization of the antimicrobial peptide Bac7 by deep mutational scanning” (BMC Biology, 2022).

The test system of the data set is Escherichia coli TOP10. Put plainly: shrunken log2 fold change of peptide-encoding DNA abundance (4.5 h post-induction vs induction); higher = less antimicrobial activity (less host growth inhibition). The settings on record: time post-induction: 4.5 h; library: site-saturation at positions 5, 18, 19, 20.
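Further: peptides expressed intracellularly from a pBAD plasmid library in pooled LB shake-flask culture, induced with 0.3% L-arabinose, DNA abundance read by NGS, three biological replicates, DESeq2 with apeglm shrinkage.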

Regarding RRIRTRPPRLPRPRPRPVMTPRP, the “shrunken log2 fold change” value is -0.14.
The same measure for RRIRWRPPRLPRPRPRPELYPRP: 0.541.
The same measure for RRIRFRPPRLPRPRPRPHGMPRP: -0.00197.
The same measure for RRIRKRPPRLPRPRPRPFCLPRP: -0.0107; for RRIRFRPPRLPRPRPRPDKDPRP: -0.393.
As for RRIRFRPPRLPRPRPRPYDLPRP, the “shrunken log2 fold change” value was -1.02.
Consider RRIRARPPRLPRPRPRPWVWPRP, for which the “shrunken log2 fold change” value stood at 0.596.
The result for RRIRNRPPRLPRPRPRPGSEPRP reads -0.24; that for RRIRKRPPRLPRPRPRPWKAPRP, 0.49; that for RRIRCRPPRLPRPRPRPRLPPRP, 0.382.
The result for RRIRKRPPRLPRPRPRPAWWPRP reads 0.577.
The result for RRIRSRPPRLPRPRPRPPMFPRP reads 0.0179; that for RRIRYRPPRLPRPRPRPSACPRP, -0.301; that for RRIRKRPPRLPRPRPRPNCWPRP, 0.621.
For the sequence RRIRQRPPRLPRPRPRPVFCPRP, the “shrunken log2 fold change” value turned out to be 0.0139.
The result for RRIRPRPPRLPRPRPRPPREPRP reads 0.678.
On to RRIRHRPPRLPRPRPRPPACPRP, for which the “shrunken log2 fold change” value amounted to 0.153.
In the case of RRIRVRPPRLPRPRPRPIFIPRP, the “shrunken log2 fold change” value was -0.328.
Consider RRIRDRPPRLPRPRPRPLLAPRP, for which the “shrunken log2 fold change” value is 1.2.
Regarding RRIRVRPPRLPRPRPRPIKLPRP, the “shrunken log2 fold change” value is -0.486.
The result for RRIRLRPPRLPRPRPRPVYYPRP reads -0.633; that for RRIRARPPRLPRPRPRPQWDPRP, 0.00442.
Consider RRIRYRPPRLPRPRPRPPLHPRP, for which the “shrunken log2 fold change” value is -0.455.
The result for RRIRCRPPRLPRPRPRPVVHPRP reads -0.55; that for RRIRSRPPRLPRPRPRPMMIPRP, -0.196; that for RRIRERPPRLPRPRPRPCVGPRP, -0.278.
The same measure for RRIRWRPPRLPRPRPRPQGDPRP: -0.0316; for RRIRNRPPRLPRPRPRPGVYPRP: -0.241.
The same measure for RRIRQRPPRLPRPRPRPMIDPRP: -0.517; for RRIRRRPPRLPRPRPRPRCDPRP: 0.306; for RRIRTRPPRLPRPRPRPFDSPRP: -0.258.
For RRIRVRPPRLPRPRPRPGNEPRP, the “shrunken log2 fold change” value is -0.203.
The same measure for RRIRNRPPRLPRPRPRPTVFPRP: 0.0462; for RRIRYRPPRLPRPRPRPWMPPRP: -0.417.
In the case of RRIRLRPPRLPRPRPRPWLYPRP, the “shrunken log2 fold change” value is -0.541.
The same measure for RRIRDRPPRLPRPRPRPAVVPRP: 0.0373; for RRIRKRPPRLPRPRPRPFRFPRP: 0.125; for RRIRQRPPRLPRPRPRPNISPRP: -0.565.
On to RRIRCRPPRLPRPRPRPYKHPRP, for which the “shrunken log2 fold change” value was -1.04.
Take RRIRCRPPRLPRPRPRPSWLPRP: the “shrunken log2 fold change” value was -0.547.
In the case of RRIRARPPRLPRPRPRPNNGPRP, the “shrunken log2 fold change” value came to 0.00213.
The result for RRIRERPPRLPRPRPRPLHSPRP reads -0.0649; that for RRIRIRPPRLPRPRPRPQPPPRP, -0.0122; that for RRIRMRPPRLPRPRPRPHRVPRP, -0.0492.
The same measure for RRIRERPPRLPRPRPRPVQQPRP: -0.168.
Consider RRIRLRPPRLPRPRPRPSIPPRP, for which the “shrunken log2 fold change” value is -0.711.
The result for RRIRYRPPRLPRPRPRPVMYPRP reads -0.134; that for RRIRKRPPRLPRPRPRPTNFPRP, 0.111; that for RRIRMRPPRLPRPRPRPSHYPRP, -0.201.
The result for RRIRGRPPRLPRPRPRPSRAPRP reads 0.553; that for RRIRCRPPRLPRPRPRPVHHPRP, -0.176; that for RRIRCRPPRLPRPRPRPTSFPRP, -0.306.
The result for RRIRPRPPRLPRPRPRPPCYPRP reads 0.0837.
Regarding RRIRPRPPRLPRPRPRPDMQPRP, the “shrunken log2 fold change” value was -0.21.
The result for RRIRCRPPRLPRPRPRPKAHPRP reads 0.205.
The result for RRIRNRPPRLPRPRPRPNESPRP reads -0.121; that for RRIRDRPPRLPRPRPRPPDFPRP, 0.0426; that for RRIRARPPRLPRPRPRPLYGPRP, -0.203.
The result for RRIRKRPPRLPRPRPRPADNPRP reads 0.0284; that for RRIRCRPPRLPRPRPRPRVIPRP, 0.0854; that for RRIRWRPPRLPRPRPRPMKDPRP, -0.141.
Consider RRIRIRPPRLPRPRPRPSHCPRP, for which the “shrunken log2 fold change” value was -0.505.
For RRIRHRPPRLPRPRPRPFNTPRP, the “shrunken log2 fold change” value is -1.18.
With RRIRMRPPRLPRPRPRPIVVPRP, the “shrunken log2 fold change” value worked out at 0.0203.
The result for RRIRYRPPRLPRPRPRPDLPPRP reads -0.0756; that for RRIRNRPPRLPRPRPRPYSVPRP, -0.0155; that for RRIRERPPRLPRPRPRPNASPRP, -0.0996.
The same measure for RRIRRRPPRLPRPRPRPKNQPRP: 0.173; for RRIRKRPPRLPRPRPRPTLEPRP: 0.132.
The same measure for RRIRPRPPRLPRPRPRPTLCPRP: -0.0815; for RRIRERPPRLPRPRPRPCRIPRP: -0.0965.
Consider RRIRQRPPRLPRPRPRPNHNPRP, for which the “shrunken log2 fold change” value was -0.893.
The result for RRIRGRPPRLPRPRPRPSILPRP reads 1.03.
The same measure for RRIRQRPPRLPRPRPRPRPIPRP: 0.385; for RRIRCRPPRLPRPRPRPVEKPRP: 0.551.
The result for RRIRMRPPRLPRPRPRPDYWPRP reads 0.441; that for RRIRWRPPRLPRPRPRPMYVPRP, -0.0461.
On to RRIRSRPPRLPRPRPRPPQWPRP, for which the “shrunken log2 fold change” value was 0.504.
The same measure for RRIRQRPPRLPRPRPRPCPFPRP: -0.505; for RRIRDRPPRLPRPRPRPDHKPRP: -0.119.
RRIRRRPPRLPRPRPRPSCMPRP: the “shrunken log2 fold change” value came out at 0.019.
In the case of RRIRVRPPRLPRPRPRPFQIPRP, the “shrunken log2 fold change” value is -0.603.
The same measure for RRIRLRPPRLPRPRPRPAPIPRP: 0.0892; for RRIRVRPPRLPRPRPRPIRRPRP: 0.0517; for RRIRYRPPRLPRPRPRPRTSPRP: -0.169.
Regarding RRIRWRPPRLPRPRPRPIFCPRP, the “shrunken log2 fold change” value stood at 0.067.
The result for RRIRDRPPRLPRPRPRPAPQPRP reads 0.983; that for RRIRKRPPRLPRPRPRPGILPRP, 0.28.
The result for RRIRSRPPRLPRPRPRPRKIPRP reads 0.12; that for RRIRYRPPRLPRPRPRPCWYPRP, -1.03; that for RRIRRRPPRLPRPRPRPWWEPRP, 1.82.
The result for RRIRGRPPRLPRPRPRPNNLPRP reads -0.349.
For RRIRYRPPRLPRPRPRPYRTPRP, the “shrunken log2 fold change” value was -0.588.
Turning to RRIRMRPPRLPRPRPRPAAWPRP, the “shrunken log2 fold change” value stood at 0.11.
Regarding RRIRGRPPRLPRPRPRPTVLPRP, the “shrunken log2 fold change” value turned out to be 0.564.
The result for RRIRARPPRLPRPRPRPQGCPRP reads 0.03; that for RRIRARPPRLPRPRPRPMASPRP, 0.543; that for RRIRLRPPRLPRPRPRPNPFPRP, -0.334.
With RRIRVRPPRLPRPRPRPKYHPRP, the “shrunken log2 fold change” value is -0.373.
The same measure for RRIRNRPPRLPRPRPRPSPKPRP: 0.191; for RRIRKRPPRLPRPRPRPVFNPRP: 0.117.
The result for RRIRLRPPRLPRPRPRPSSRPRP reads -0.425.
Regarding RRIRLRPPRLPRPRPRPDPEPRP, the “shrunken log2 fold change” value amounted to 0.0928.
The result for RRIRRRPPRLPRPRPRPGQDPRP reads 0.112.
The same measure for RRIRVRPPRLPRPRPRPYRDPRP: -0.278; for RRIRTRPPRLPRPRPRPGMWPRP: 0.158; for RRIRQRPPRLPRPRPRPYLEPRP: -0.332.
The result for RRIRWRPPRLPRPRPRPWCAPRP reads 0.0379.
Consider RRIRLRPPRLPRPRPRPVGSPRP, for which the “shrunken log2 fold change” value is -0.165.
The same measure for RRIRERPPRLPRPRPRPPPQPRP: 0.553; for RRIRWRPPRLPRPRPRPCLNPRP: 0.0137.
The same measure for RRIRHRPPRLPRPRPRPGWYPRP: -0.018; for RRIRRRPPRLPRPRPRPMTPPRP: 0.749.
The same measure for RRIRVRPPRLPRPRPRPSNTPRP: -0.417.
In the case of RRIRIRPPRLPRPRPRPWWRPRP, the “shrunken log2 fold change” value is -0.0114.
The same measure for RRIRLRPPRLPRPRPRPDDWPRP: 0.044; for RRIRMRPPRLPRPRPRPVSGPRP: 0.594.
As to RRIRIRPPRLPRPRPRPRVVPRP, the “shrunken log2 fold change” value was found to be 0.00259.
The result for RRIRQRPPRLPRPRPRPFNRPRP reads -0.0328.
The result for RRIRLRPPRLPRPRPRPNQIPRP reads -0.253.
The result for RRIRNRPPRLPRPRPRPENTPRP reads -0.803; that for RRIRVRPPRLPRPRPRPSMKPRP, -0.363; that for RRIRMRPPRLPRPRPRPGLLPRP, 0.251.
RRIRRRPPRLPRPRPRPTFWPRP: the “shrunken log2 fold change” value was 0.436.
The same measure for RRIRMRPPRLPRPRPRPKRCPRP: 0.211.
